What was measured:
Assay in all cases: flow cytometry on transfected cells, IgG
human CD33 Y50S = human CD33 Y50S (human, UniProt P20138 18-364)
Procedure: (§1) An alanine scan on human CD33 was performed to the determine the residues on CD33 that are involved in binding to the antibodies investigated. […] Briefly, a mutation library of CD33 was created by high-throughput, site-directed mutagenesis. Each residue was individually mutated to alanine, with alanine codons mutated to serine. The mutant library was arrayed in 384-well microplates and transiently transfected into HEK293-T. Following transfection, cells were incubated with the indicated antibodies (IgG or Fab) at concentrations pre-determined using an independent immunofluorescence titration curve on wild type CD33. […] Binding of each antibody to each mutant clone was determined in duplicates. For each point, background fluorescence was subtracted from the raw data, which were then normalized to antibody reactivity with wild type CD33.
(§2) Antibodies were screened for binding to the human CD33 variants in IgG format. […] For each mutation, background fluorescence was subtracted from the raw data, which were then normalized to antibody reactivity with wild-type CD33.

human CD33 Y50I = human CD33 Y50I (human, UniProt P20138 18-364)
Procedure: as §1, §2

human CD33 P48Q = human CD33 P48Q (human, UniProt P20138 18-364)
Procedure: as §1, §2

human CD33 P46I = human CD33 P46I (human, UniProt P20138 18-364)
Procedure: as §1, §2

human CD33 F43L = human CD33 F43L (human, UniProt P20138 18-364)
Procedure: as §1, §2

human CD33 F44E = human CD33 F44E (human, UniProt P20138 18-364)
Procedure: as §1, §2

human CD33 I47G = human CD33 I47G (human, UniProt P20138 18-364)
Procedure: as §1, §2

human CD33 P48H = human CD33 P48H (human, UniProt P20138 18-364)
Procedure: as §1, §2

human CD33 I47N = human CD33 I47N (human, UniProt P20138 18-364)
Procedure: as §1, §2

human CD33 Y50L = human CD33 Y50L (human, UniProt P20138 18-364)
Sequence of human CD33 Y50L (P20138 18-364 Y50L limits assumed): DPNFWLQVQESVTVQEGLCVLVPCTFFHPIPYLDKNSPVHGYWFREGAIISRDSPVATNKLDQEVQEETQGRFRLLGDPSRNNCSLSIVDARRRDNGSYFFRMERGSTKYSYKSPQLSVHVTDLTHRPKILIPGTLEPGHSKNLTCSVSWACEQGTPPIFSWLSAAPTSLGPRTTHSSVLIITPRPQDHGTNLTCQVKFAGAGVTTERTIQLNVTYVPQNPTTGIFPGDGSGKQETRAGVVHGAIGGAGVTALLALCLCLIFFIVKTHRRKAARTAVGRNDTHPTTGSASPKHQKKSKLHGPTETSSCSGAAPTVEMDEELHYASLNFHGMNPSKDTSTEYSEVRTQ
Procedure: as §1, §2

human CD33 F44V = human CD33 F44V (human, UniProt P20138 18-364)
Procedure: as §1, §2

human CD33 Y49D = human CD33 Y49D (human, UniProt P20138 18-364)
Procedure: as §1, §2

human CD33 H45Y = human CD33 H45Y (human, UniProt P20138 18-364)
Sequence of human CD33 H45Y (P20138 18-364 H45Y limits assumed): as the sequence (P20138 18-364 Y50L limits assumed) above, with H28Y, L33Y counted along it
Procedure: as §1, §2

human CD33 T42P = human CD33 T42P (human, UniProt P20138 18-364)
Procedure: as §1, §2

human CD33 P46Y = human CD33 P46Y (human, UniProt P20138 18-364)
Sequence of human CD33 P46Y (P20138 18-364 P46Y limits assumed): as the sequence (P20138 18-364 Y50L limits assumed) above, with P29Y, L33Y counted along it
Procedure: as §1, §2

human CD33 I47S = human CD33 I47S (human, UniProt P20138 18-364)
Procedure: as §1, §2

human CD33 Y49R = human CD33 Y49R (human, UniProt P20138 18-364)
Sequence of human CD33 Y49R (P20138 18-364 Y49R limits assumed): as the sequence (P20138 18-364 Y50L limits assumed) above, with Y32R, L33Y counted along it
Procedure: as §1, §2

human CD33 P48L = human CD33 P48L (human, UniProt P20138 18-364)
Procedure: as §1, §2

human CD33 P48T = human CD33 P48T (human, UniProt P20138 18-364)
Sequence of human CD33 P48T (P20138 18-364 P48T limits assumed): as the sequence (P20138 18-364 Y50L limits assumed) above, with P31T, L33Y counted along it
Procedure: as §1, §2

human CD33 I47F = human CD33 I47F (human, UniProt P20138 18-364)
Procedure: as §1, §2

human CD33 Y50R = human CD33 Y50R (human, UniProt P20138 18-364)
Procedure: as §1, §2

human CD33 Y49Q = human CD33 Y49Q (human, UniProt P20138 18-364)
Sequence of human CD33 Y49Q (P20138 18-364 Y49Q limits assumed): as the sequence (P20138 18-364 Y50L limits assumed) above, with Y32Q, L33Y counted along it
Procedure: as §1, §2

human CD33 F44S = human CD33 F44S (human, UniProt P20138 18-364)
Sequence of human CD33 F44S (P20138 18-364 F44S limits assumed): as the sequence (P20138 18-364 Y50L limits assumed) above, with F27S, L33Y counted along it
Procedure: as §1, §2

human CD33 Y49C = human CD33 Y49C (human, UniProt P20138 18-364)
Procedure: as §1, §2

human CD33 P46D = human CD33 P46D (human, UniProt P20138 18-364)
Sequence of human CD33 P46D (P20138 18-364 P46D limits assumed): as the sequence (P20138 18-364 Y50L limits assumed) above, with P29D, L33Y counted along it
Procedure: as §1, §2

human CD33 P46L = human CD33 P46L (human, UniProt P20138 18-364)
Procedure: as §1, §2

human CD33 I47P = human CD33 I47P (human, UniProt P20138 18-364)
Sequence of human CD33 I47P (P20138 18-364 I47P limits assumed): as the sequence (P20138 18-364 Y50L limits assumed) above, with I30P, L33Y counted along it
Procedure: as §1, §2

human CD33 I47W = human CD33 I47W (human, UniProt P20138 18-364)
Sequence of human CD33 I47W (P20138 18-364 I47W limits assumed): as the sequence (P20138 18-364 Y50L limits assumed) above, with I30W, L33Y counted along it
Procedure: as §1, §2

human CD33 Y50D = human CD33 Y50D (human, UniProt P20138 18-364)
Procedure: as §1, §2

human CD33 Y50N = human CD33 Y50N (human, UniProt P20138 18-364)
Sequence of human CD33 Y50N (P20138 18-364 Y50N limits assumed): as the sequence (P20138 18-364 Y50L limits assumed) above, with L33N counted along it
Procedure: as §1, §2

human CD33 P48G = human CD33 P48G (human, UniProt P20138 18-364)
Procedure: as §1, §2

human CD33 Y49P = human CD33 Y49P (human, UniProt P20138 18-364)
Sequence of human CD33 Y49P (P20138 18-364 Y49P limits assumed): as the sequence (P20138 18-364 Y50L limits assumed) above, with Y32P, L33Y counted along it
Procedure: as §1, §2

human CD33 P48W = human CD33 P48W (human, UniProt P20138 18-364)
Procedure: as §1, §2

human CD33 I47E = human CD33 I47E (human, UniProt P20138 18-364)
Procedure: as §1, §2

human CD33 F43V = human CD33 F43V (human, UniProt P20138 18-364)
Procedure: as §1, §2

human CD33 Y49V = human CD33 Y49V (human, UniProt P20138 18-364)
Procedure: as §1, §2

human CD33 F44I = human CD33 F44I (human, UniProt P20138 18-364)
Procedure: as §1, §2

human CD33 P46F = human CD33 P46F (human, UniProt P20138 18-364)
Procedure: as §1, §2

Sequence of human CD33 P48Q (P20138 18-364 P48Q limits assumed): as the sequence (P20138 18-364 Y50L limits assumed) above, with P31Q, L33Y counted along it
Sequence of human CD33 P46I (P20138 18-364 P46I limits assumed): as the sequence (P20138 18-364 Y50L limits assumed) above, with P29I, L33Y counted along it

B1: Refmab #6 (antibody, human IgG1, V domains shown)
VH: QVQLQQPGAEVVKPGASVKMSCKASGYTFTSYYIHWIKQTPGQGLEWVGVIYPGNDDISYNQKFQGKATLTADKSSTTAYMQLSSLTSEDSAVYYCAREVRLRYFDVWGQGTTVTVSS
VL: EIVLTQSPGSLAVSPGERVTMSCKSSQSVFFSSSQKNYLAWYQQIPGQSPRLLIYWASTRESGVPDRFTGSGSGTDFTLTISSVQPEDLAIYYCHQYLSSRTFGQGTKLEIK
Mean % WT Binding (human CD33 Y50S): 122 % WT binding | Mean % WT Binding (human CD33 Y50I): 118 % WT binding | Mean % WT Binding (human CD33 P48Q): 111 % WT binding | Mean % WT Binding (human CD33 P46I): 98.5 % WT binding | Mean % WT Binding (human CD33 F43L): 87.9 % WT binding | Mean % WT Binding (human CD33 F44E): 102 % WT binding | Mean % WT Binding (human CD33 I47G): 105 % WT binding | Mean % WT Binding (human CD33 P48H): 94.4 % WT binding | Mean % WT Binding (human CD33 I47N): 96.6 % WT binding | Mean % WT Binding (human CD33 Y50L): 108 % WT binding | Mean % WT Binding (human CD33 F44V): 98.9 % WT binding | Mean % WT Binding (human CD33 Y49D): 117 % WT binding | Mean % WT Binding (human CD33 H45Y): 84.4 % WT binding | Mean % WT Binding (human CD33 T42P): 9.3 % WT binding | Mean % WT Binding (human CD33 P46Y): 79.9 % WT binding | Mean % WT Binding (human CD33 I47S): 91 % WT binding | Mean % WT Binding (human CD33 Y49R): 101 % WT binding | Mean % WT Binding (human CD33 P48L): 104 % WT binding | Mean % WT Binding (human CD33 P48T): 92.6 % WT binding | Mean % WT Binding (human CD33 I47F): 105 % WT binding | Mean % WT Binding (human CD33 Y50R): 96.9 % WT binding | Mean % WT Binding (human CD33 Y49Q): 115 % WT binding | Mean % WT Binding (human CD33 F44S): 86.1 % WT binding | Mean % WT Binding (human CD33 Y49C): 44.7 % WT binding | Mean % WT Binding (human CD33 P46D): 104 % WT binding | Mean % WT Binding (human CD33 P46L): 107 % WT binding | Mean % WT Binding (human CD33 I47P): 114 % WT binding | Mean % WT Binding (human CD33 I47W): 114 % WT binding | Mean % WT Binding (human CD33 Y50D): 129 % WT binding | Mean % WT Binding (human CD33 Y50N): 108 % WT binding | Mean % WT Binding (human CD33 P48G): 89 % WT binding | Mean % WT Binding (human CD33 Y49P): 117 % WT binding | Mean % WT Binding (human CD33 P48W): 87.2 % WT binding | Mean % WT Binding (human CD33 I47E): 122 % WT binding | Mean % WT Binding (human CD33 F43V): 91.8 % WT binding | Mean % WT Binding (human CD33 Y49V): 121 % WT binding | Mean % WT Binding (human CD33 F44I): 93.1 % WT binding | Mean % WT Binding (human CD33 P46F): 92.6 % WT binding

B2: Refmab #5 (antibody, human IgG1, V domains shown)
VH: QVQLVQSGAEVKKPGASVKVSCKASGYTFTNYDINWVRQAPGQGLEWIGWIYPGDGSTKYNEKFKAKATLTADTSTSTAYMELRSLRSDDTAVYYCASGYEDAMDYWGQGTTVTVSS
VL: DIQMTQSPSSLSASVGDRVTINCKASQDINSYLSWFQQKPGKAPKTLIYRANRLVDGVPSRFSGSGSGQDYTLTISSLQPEDFATYYCLQYDEFPLTFGGGTKVEIK
Mean % WT Binding (human CD33 Y50S): 5.3 % WT binding | Mean % WT Binding (human CD33 Y50I): 2.5 % WT binding | Mean % WT Binding (human CD33 P48Q): 2.1 % WT binding | Mean % WT Binding (human CD33 P46I): 100 % WT binding | Mean % WT Binding (human CD33 F43L): 96.3 % WT binding | Mean % WT Binding (human CD33 F44E): 97 % WT binding | Mean % WT Binding (human CD33 I47G): 80.9 % WT binding | Mean % WT Binding (human CD33 P48H): 7.4 % WT binding | Mean % WT Binding (human CD33 I47N): 88 % WT binding | Mean % WT Binding (human CD33 Y50L): 1.7 % WT binding | Mean % WT Binding (human CD33 F44V): 97.7 % WT binding | Mean % WT Binding (human CD33 Y49D): 1.7 % WT binding | Mean % WT Binding (human CD33 H45Y): 94.2 % WT binding | Mean % WT Binding (human CD33 T42P): 13.9 % WT binding | Mean % WT Binding (human CD33 P46Y): 48 % WT binding | Mean % WT Binding (human CD33 I47S): 98.2 % WT binding | Mean % WT Binding (human CD33 Y49R): 1 % WT binding | Mean % WT Binding (human CD33 P48L): 18.9 % WT binding | Mean % WT Binding (human CD33 P48T): 91.4 % WT binding | Mean % WT Binding (human CD33 I47F): 90.5 % WT binding | Mean % WT Binding (human CD33 Y50R): 47 % WT binding | Mean % WT Binding (human CD33 Y49Q): 2.3 % WT binding | Mean % WT Binding (human CD33 F44S): 104 % WT binding | Mean % WT Binding (human CD33 Y49C): 0.7 % WT binding | Mean % WT Binding (human CD33 P46D): 76 % WT binding | Mean % WT Binding (human CD33 P46L): 87.2 % WT binding | Mean % WT Binding (human CD33 I47P): 4.9 % WT binding | Mean % WT Binding (human CD33 I47W): 90.8 % WT binding | Mean % WT Binding (human CD33 Y50D): 2.5 % WT binding | Mean % WT Binding (human CD33 Y50N): 3.2 % WT binding | Mean % WT Binding (human CD33 P48G): 3.5 % WT binding | Mean % WT Binding (human CD33 Y49P): 2.2 % WT binding | Mean % WT Binding (human CD33 P48W): 2.2 % WT binding | Mean % WT Binding (human CD33 I47E): 89.1 % WT binding | Mean % WT Binding (human CD33 F43V): 82.2 % WT binding | Mean % WT Binding (human CD33 Y49V): 0.9 % WT binding | Mean % WT Binding (human CD33 F44I): 106 % WT binding | Mean % WT Binding (human CD33 P46F): 62 % WT binding

— patent US20260242735A1 (UNIVERSIT T BASEL, published 2026)
